Source: publication PMC6179904 (Developmental Cell, 2018)
Where no end group is shown, it is not given here. The star is where a group is joined. Fluorescin = fluorescein label at the C-terminus, before the amide; Myristoyl = CCCCCCCCCCCCCC(=O)*

Molecular target: full-length UNC119A (UniProt Q13432 1-240)
Test: fluorescence polarisation

| Binder | Kd |
| --- | --- |
| Myristoyl-GSNKSKPKDASQ (also: fluorescein label, position not given here) [c-SRC (Myr-GSNKSKPKDASQ) fluorescein-labeled myristoylated peptide] | 125 ± 69 nM |
| Myristoyl-GNLESAEGVPGE-{Fluorescin-NH2} [fluorescein-labeled myristoylated FMNL3 peptide (Myr-GNLESAEGVPGE-Fluorescin-amide)] | 856 ± 156 nM |
| Myristoyl-GNAAGSAEQPAG-{Fluorescin-NH2} [fluorescein-labeled myristoylated FMNL1 peptide (Myr-GNAAGSAEQPAG-Fluorescin-amide)] | 10.1 ± 3.5 nM |
